Source: US9340596B2, “Fusion protein comprising tumor necrosis factor related apoptosis inducing ligand and integrin ligand and use thereof” (NANJING UNIVERSITY, priority 2007, dated 2016)

What was measured:
[1] = system: human foreskin microvascular endothelial cells; test: Cell adhesion assay of human foreskin microvascular endothelial cells on protein-coated wells; assay type: cell-based; conditions: free protein added to plates coated with TRAIL variant protein
Protocol: The TRAIL and its variant protein are coated on a 96-well PVC plate overnight at 4° C. The coated 96-well plate was rinsed with 0.9% physiological saline, and then blocked for 1 h at 1640 culture medium containing 2% bovine serum albumin, and then rinsed again. After the human foreskin microvascular endothelial cells were digested, washed three times with phosphate buffer and re-suspended into the complete RPMI1640 medium, it was then added to the 96-well plate coated with TRAIL and its variant (40,000 cell per well). After the cells were incubated for 1.5 hours in an incubator containing 5% carbon dioxide, they were washed three times with physiological saline to remove the non-adherent cells. The adherent cells were fixed for 30 min with phosphate buffer solution (pH 7.3) containing 4% formalin and 2% sucrose, and then stained with 0.5% crystal violet. The fixed stained cells were rinsed several times, then dissolved with […] DMSO to test the absorbance values at 540 nm. All the tests should be carried out at least three times independently.

[2] = system: COLO-205 colon cancer cells; test: Cell apoptosis, Annexin V and PI double staining, COLO-205; assay type: cell-based; conditions: COLO-205 cells pre-incubated with RGD-L-TRAIL (C230G), then induced with RGD-L-TRAIL
Protocol: After the cells treated with TRAIL and its variant were digested with trypsin, they were removed from the cultivation plate, washed twice with phosphate buffer solution, and centrifuged for 5 min at 300 g centrifugal force. The supernatants were removed, and the cells were re-suspended in 100 ul of binding buffer solution. Then, Annexin V-FITC (BD Pharmgen) was added until a final concentration of 2 μg/ml was achieved, followed by incubation at room temperature. After 10 min, 400 ul of binding buffer was added, and the cells were transferred to a flow analysis tube. 1 μg of […] (Sigma Corporation) was added to each tube. The cells were analyzed with a flow cytometer within 30 min. At least three separate tests should be carried out for each cell line.

B1: RGD-L-TRAIL (C230G): TRAIL variant fused with αVβ3 and αVβ5 integrin ligands with a mutation at TRAIL's activity center causing loss of biological activity (protein)
chain: ACDCRGDCFCGGGGGVRERGPQRVAAHITGTRGRSNTLSSPNSKNEKALGRKINSWESSRSGHSFLSNLHLRNGELVIHEKGFYYIYSQTYFRFQEEIKENTKNDKQMVQYIYKYTSYPDPILLMKSARNSGWSKDAEYGLYSIYQGGIFELKENDRIFVSVTNEHLIDMDHEASFFGAFLVG
For B1, the “reduction by free protein of endothelial cells adhered to microplates coated with RGD-L-TRAIL (competitive test)” value [1] was “significantly reduce” and the “effect of pre-incubation with the competitive inhibitor on RGD-L-TRAIL-induced apoptosis activity” value [2] was “declined significantly”.
